Source: the supplement of paper PMC10126150
± gives the standard deviation of the averaged measurements.

Test system: ATP
Assay: switch fluorescence ratio, 500 uM ATP over buffer (Cy3 cluster intensity, sum of 5 cycles each) (fold (ratio)); higher = stronger signal-on switching upon ATP binding; sequences stand for … in TCGTCGGCAGCGTCAGATGTGTATAAGAGACAGTTTTTTTTTTTTTTTTTTTTTTTTT…TC
Details: aptamer strand: ATP DNA aptamer (quencher-CACCTGGGGGAGTATTGCGGAGGAAGG + anchor), 100 nM annealed; ATP concentration: 500 uM
Method in brief: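 Cy3-labelled switching-strand clusters on a modified Illumina MiSeq flow-cell were annealed to 100 nM quencher-labelled ATP aptamer, imaged in selection buffer, then imaged after 15 min with 500 uM ATP at 22 °C. Five buffer/ATP cycles ran, with NaOH stripping and re-annealing between them. The fluorescence ratio is summed target-cycle over summed buffer-cycle Cy3 intensity per cluster, averaged per switch-domain sequence. Clusters outside 100-1000 RFU were excluded.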
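Further: ATP exposure 15 min at 22 °C before imaging.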

Sequence | switch fluorescence ratio
GCTTCAGGGG | 1.09 ± 0.12
TTTCGGTGCT | 1.03 ± 0.049
GCGCTAGGCT | 1.01 ± 0.08
AGAGGTGGGG | 0.968 ± 0.012
GATATTGGGC | 1.02 ± 0.024
AGGTAGGTGT | 1.04 ± 0.023
ATAAAGGGTT | 0.9936 ± 0.009
CGGGGGGAAG | 1.01 ± 0.029
GAGGTACTGG | 1.018 ± 0.008
GCTCTTCCCG | 1.319 ± 0.011
GAATGGGGGT | 0.982 ± 0.02
ATGAGGTTAG | 0.947 ± 0.065
GTGGGCGGCC | 0.99 ± 0.028
TTTCGGGGAT | 1.03 ± 0.038
TAAGAGGCGC | 0.958 ± 0.077
TATGGTCACC | 1.03 ± 0.03
AGGGGTAATT | 1.02 ± 0.024
AGAATGTGG | 1.21 ± 0.28
GTTAAAAAAA | 0.958 ± 0.021
CTCTGCTCGC | 4.15 ± 0.55
CCAAGGGAGG | 1.01 ± 0.03
GCTTTAGGTA | 0.9843 ± 0.0058
GAACTCTACT | 1.14 ± 0.044
CGGTAACCGC | 0.994 ± 0.098
TACTGGGGCA | 0.9842 ± 0.0028

Sequence | switch fluorescence ratio
GTTGATTGGG | 0.994 ± 0.029
GACGTGCGAC | 1.29 ± 0.079
GTAACAGATT | 0.976 ± 0.039
AGGACGGGGG | 1.02 ± 0.033
GATTGACCCT | 1.048 ± 0.0092
TTGGGATTGG | 0.968 ± 0.018
GGGTATGAGC | 0.969 ± 0.04
CTAGGGAGAG | 0.9912 ± 0.0069
AGTTGCTTGG | 1.01 ± 0.041
AAAAAAATTT | 1 ± 0.029
GATTCTATAG | 0.988 ± 0.036
GCGTTTAATG | 0.977 ± 0.047
ACTTTTGTTT | 1.02 ± 0.015
TCTGCATGGT | 1.07 ± 0.013
GGGGCTTACG | 0.9893 ± 0.0087
TTCGAGTCTT | 0.9742 ± 0.0083
GGATAGATGG | 0.986 ± 0.02
TTGAGGCCCG | 0.9375 ± 0.0031
TCGATGGCGC | 1.02 ± 0.023
AGTGTGGTGC | 0.9778 ± 0.0073
GGGGTCGTCA | 1.04 ± 0.0072
TCTTCGGGGG | 1.07 ± 0.032
TTCCGGTAAT | 1.23 ± 0.033
TTCAGGGGCA | 1.08 ± 0.033
TCGATCCCGA | 1.017 ± 0.0072

Sequence | switch fluorescence ratio
TCGCTTGGCC | 1.03 ± 0.04
TGATGGGACT | 1.01 ± 0.029
TGAGTTATTT | 1.01 ± 0.012
TTTTAGAAAT | 1.98 ± 1.3
TTTAGTTGAA | 0.988 ± 0.023
AGGTATTGCG | 0.994 ± 0.044
ATGCGAAACC | 1.02 ± 0.051
TTACGGTGTC | 1.02 ± 0.025
GGGATTCTTG | 1.01 ± 0.04
TATAGTCATT | 1.02 ± 0.022
GCTGGGTGCT | 0.984 ± 0.015
TTCGGCCGGT | 0.998 ± 0.011
ATGTTCTCTG | 1.033 ± 0.0091
CGTTGGTCGC | 1.01 ± 0.016
TGGTATTTGG | 0.949 ± 0.046
AGCTGAGGGA | 1.015 ± 0.0066
CGAAATGTCC | 1.061 ± 0.002
GGTTGTCTTA | 0.9726 ± 0.0018
AGTTTCTAGT | 0.97 ± 0.043
CCGCTTTTAT | 2.69 ± 0.48
TGTTCTAGTT | 1.01 ± 0.015
TAGGTGATTT | 1.03 ± 0.023
AAATAAGGAG | 1.02 ± 0.033
GGGGGATGTC | 1 ± 0.034
ATTCACCGGA | 1.031 ± 0.0044

Sequence | switch fluorescence ratio
TGTTGAGGCG | 0.981 ± 0.015
CATGATATGG | 0.969 ± 0.02
AGACATCCTT | 1.04 ± 0.014
AGAGGGTGAC | 1.01 ± 0.016
GTTTTTTTTG | 0.999 ± 0.029
GTTCCTGCGG | 1.075 ± 0.01
CGCATGTCTC | 1.81 ± 0.11
TAATATCCTA | 1 ± 0.048
GCATTAAAAT | 0.9578 ± 0.0013
GTGTTTGGAA | 0.993 ± 0.012
AAACTAGCGG | 1.02 ± 0.016
AAGGGGACAG | 0.995 ± 0.03
GCGGCTGAAA | 1 ± 0.022
AGGGTTTTCT | 1 ± 0.012
TTAAATTTT | 1.01 ± 0.024
GTTGGGCAGC | 1.046 ± 0.0053
AGAATCGAAG | 0.994 ± 0.0041
AATGGAGGAG | 1.01 ± 0.023
TCATCATTTT | 0.996 ± 0.0019
GTTCATGGTT | 1.01 ± 0.054
AACGCATATT | 1.85 ± 0.78
CCTGGGGGAT | 1.75 ± 0.43
TTCAGGGGTT | 1.04 ± 0.068
TCTGGGAGGG | 1.03 ± 0.047
GTGTGATGTT | 0.99 ± 0.042
